Common to all, as to test: SPR steady state
For test [1], the target named is T1, His-tagged human FcyRIIB (human, UniProt P31994 46-217).
T1 chain: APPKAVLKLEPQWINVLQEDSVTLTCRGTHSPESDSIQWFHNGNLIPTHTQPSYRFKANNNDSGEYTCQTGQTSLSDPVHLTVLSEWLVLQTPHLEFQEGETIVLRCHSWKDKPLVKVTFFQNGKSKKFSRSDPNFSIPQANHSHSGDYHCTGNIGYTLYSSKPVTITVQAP

The target in test [2] is His-tagged human FcyRIIIA (human, UniProt P08637 17-208).
The target of test [3] is T2, His-tagged human FcyRIIA (human, UniProt P12318 36-218).
T2 chain: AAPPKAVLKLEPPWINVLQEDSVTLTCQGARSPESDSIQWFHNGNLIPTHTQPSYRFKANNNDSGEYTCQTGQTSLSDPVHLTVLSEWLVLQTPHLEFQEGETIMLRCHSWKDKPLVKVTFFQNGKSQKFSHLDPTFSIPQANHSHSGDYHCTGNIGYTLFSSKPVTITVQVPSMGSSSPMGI

His-tagged human FcyRIIIA, sequence (P08637 17-208): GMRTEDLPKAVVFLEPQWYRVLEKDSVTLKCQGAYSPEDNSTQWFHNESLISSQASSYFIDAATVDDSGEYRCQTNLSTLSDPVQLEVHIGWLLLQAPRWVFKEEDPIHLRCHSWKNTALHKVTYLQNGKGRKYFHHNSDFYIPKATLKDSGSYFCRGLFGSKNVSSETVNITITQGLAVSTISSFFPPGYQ

B1: Control Antibody A (Lot- L2), 9F7_VH_IgG4 (antibody)
constant: ASTKGPSVFPLAPCSRSTSESTAALGCLVKDYFPEPVTVSWNSGALTSGVHTFPAVLQSSGLYSLSSVVTVPSSSLGTKTYTCNVDHKPSNTKVDKRVESKYGPPCPSCPAPEFLGGPSVFLFPPKPKDTLMISRTPEVTCVVVDVSQEDPEVQFNWYVDGVEVHNAKTKPREEQFNSTYRVVSVLTVLHQDWLNGKEYKCKVSNKGLPSSIEKTISKAKGQPREPQVYTLPPSQEEMTKNQVSLTCLVKGFYPSDIAVEWESNGQPENNYKTTPPVLDSDGSFFLYSRLTVDKSRWQEGNVFSCSVMHEALHNRFTQKSLSLSLGK
B1: the dissociation constant Kd (in general, the constant that tells how readily two partners part at equilibrium) in test [1] stood at 2.2 µM; in test [2], 140 µM; in test [3], 16.8 µM.

Values taken from patent US20230287117A1 (published 2023).
